{
  "source": "paper PMC11387445",
  "about": "“L-Lactate dehydrogenase from Cyanidioschyzon merolae shows high catalytic efficiency for pyruvate reduction and is inhibited by ATP” (Plant Molecular Biology, 2024)",
  "molecules": {"B1": {"name": "CmLDH1 (Cyanidioschyzon merolae strain 10D) (protein)", "chain": "MTSGIDEAAAELQGSLFGEVSPAIDSPGAALARSYPVRITVVGAGDVGVACAYNILTRDICSELVLVDVLKDKLKGQVMDLQHGGAFYSTRIRAAESYEDTAHSAVCIITAGVRQRPGESRLELMDRNAALFKGIIPPLVQYSPNTILLVVSNPVDLLTHLAWQMSGLPRERVIGSGTYLDSSRFRTLLAQRLGIDTASVQAMVLGEHGDSSFVYRSGITVGGVPLRTCFERMTDAASASTAFYDLVKGVHQQVVAAAYEVIKLKGYTNWAIGSAVGSIVTTIVHDRRKVLPITTHAGSLRGLESADVFLSLPCVLGRNGVVEVLQILPFMESDEKEDLQSSIEALQSTPKKAS", "notes": "full length, 354 residues; E. coli BL21(DE3)"}},
  "key": {"[1]": {"molecular_target": "T1, CmLDH1 (Cyanidioschyzon merolae, UniProt M1V6D8)", "T1 construct": "gene CYME_CMA145C; full length, 354 residues; E. coli BL21(DE3)", "T1 sequence (M1V6D8 1-354)": "B1 chain", "assay": "NADH oxidation at […] nm, relative activity", "type": "biochemical", "details": "inhibition, 0.20 mM pyruvate, 0.05 mM NADH, pH 7.0, 57 °C"}, "[2]": {"molecular_target": "T1, CmLDH1", "assay": "NADH oxidation at […] nm, relative activity", "type": "biochemical", "details": "activation; 5 mM FBP, 0.20 mM pyruvate, 0.05 mM NADH, pH 7.0, 57 °C"}, "[3]": {"substrate": "NC(=O)C1=CN([C@@H]2O[C@H](COP(=O)(O)OP(=O)(O)OC[C@H]3O[C@@H](n4cnc5c(N)ncnc54)[C@H](O)[C@@H]3O)[C@@H](O)[C@H]2O)C=CC1", "assay": "purified protein", "type": "biochemical, Cyanidioschyzon merolae", "details": "2 mM sodium pyruvate, pH 4.5 (optimum), 57 °C, no effector"}, "[4]": {"substrate": "CC(=O)C(=O)O", "assay": "purified protein", "type": "biochemical, Cyanidioschyzon merolae", "details": "0.15 mM NADH, pH 4.5 (optimum), 57 °C, no effector"}},
  "data": [
    {"molecule": "Nc1ncnc2c1ncn2[C@@H]1O[C@H](COP(=O)(O)OP(=O)(O)OP(=O)(O)O)[C@@H](O)[C@H]1O", "note": "[ATP]", "values": [
      {"measurement": "relative activity", "setting": "[1]; mixed inhibitor for NADH", "value": "ATP and ADP (particularly ATP) decreased CmLDH1 activity"}
    ]},
    {"molecule": "O=P(O)(O)OC[C@H]1OC(O)(COP(=O)(O)O)[C@@H](O)[C@@H]1O", "note": "(stereo partly drawn) [FBP]", "values": [
      {"measurement": "relative activity at 5 mM", "setting": "[2]", "value": 1.2, "unit": "fold"}
    ]},
    {"molecule": "Nc1ncnc2c1ncn2[C@@H]1O[C@H](COP(=O)(O)OP(=O)(O)O)[C@@H](O)[C@H]1O", "note": "[ADP]", "values": [
      {"measurement": "relative activity", "setting": "[1]", "value": "ATP and ADP (particularly ATP) decreased CmLDH1 activity"}
    ]},
    {"molecule": "B1", "values": [
      {"measurement": "K0.5", "setting": "[3]", "value": "0.011 ± 0.0006", "unit": "mM"},
      {"measurement": "kcat", "setting": "[3]", "value": "324 ± 6", "unit": "s⁻¹"},
      {"measurement": "kcat/Km", "setting": "[3]", "value": "2.95e+07 ± 1.05e+06", "unit": "M⁻¹ s⁻¹"},
      {"measurement": "K0.5", "setting": "[4]", "value": "0.13 ± 0.005", "unit": "mM"},
      {"measurement": "kcat", "setting": "[4]", "value": "314 ± 3", "unit": "s⁻¹"},
      {"measurement": "kcat/Km", "setting": "[4]", "value": "2.46e+06 ± 75000", "unit": "M⁻¹ s⁻¹"}
    ]}
  ]
}
